T1: human propionyl-CoA carboxylase beta (PCCB), wild-type isoform 1
T1 chain: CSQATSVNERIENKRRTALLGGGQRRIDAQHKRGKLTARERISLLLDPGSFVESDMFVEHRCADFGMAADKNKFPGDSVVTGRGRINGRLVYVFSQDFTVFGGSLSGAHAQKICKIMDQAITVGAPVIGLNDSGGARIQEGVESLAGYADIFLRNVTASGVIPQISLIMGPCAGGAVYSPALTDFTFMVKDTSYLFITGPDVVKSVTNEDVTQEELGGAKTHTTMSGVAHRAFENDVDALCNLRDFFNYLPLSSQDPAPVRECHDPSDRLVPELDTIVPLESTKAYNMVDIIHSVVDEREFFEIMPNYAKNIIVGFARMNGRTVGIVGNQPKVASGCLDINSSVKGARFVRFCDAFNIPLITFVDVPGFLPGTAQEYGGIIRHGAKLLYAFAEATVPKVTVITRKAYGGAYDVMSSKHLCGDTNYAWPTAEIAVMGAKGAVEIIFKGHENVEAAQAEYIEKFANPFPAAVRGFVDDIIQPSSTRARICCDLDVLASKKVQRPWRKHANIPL

T2: human propionyl-CoA carboxylase alpha (PCCA), wild-type isoform 1 (human, UniProt P05165 53-728)
T2 construct: Made inside transfected cells or mouse liver from mRNA encoding the full-length precursor; also called hPCCA; propionyl-CoA carboxylase alpha subunit
T2 sequence: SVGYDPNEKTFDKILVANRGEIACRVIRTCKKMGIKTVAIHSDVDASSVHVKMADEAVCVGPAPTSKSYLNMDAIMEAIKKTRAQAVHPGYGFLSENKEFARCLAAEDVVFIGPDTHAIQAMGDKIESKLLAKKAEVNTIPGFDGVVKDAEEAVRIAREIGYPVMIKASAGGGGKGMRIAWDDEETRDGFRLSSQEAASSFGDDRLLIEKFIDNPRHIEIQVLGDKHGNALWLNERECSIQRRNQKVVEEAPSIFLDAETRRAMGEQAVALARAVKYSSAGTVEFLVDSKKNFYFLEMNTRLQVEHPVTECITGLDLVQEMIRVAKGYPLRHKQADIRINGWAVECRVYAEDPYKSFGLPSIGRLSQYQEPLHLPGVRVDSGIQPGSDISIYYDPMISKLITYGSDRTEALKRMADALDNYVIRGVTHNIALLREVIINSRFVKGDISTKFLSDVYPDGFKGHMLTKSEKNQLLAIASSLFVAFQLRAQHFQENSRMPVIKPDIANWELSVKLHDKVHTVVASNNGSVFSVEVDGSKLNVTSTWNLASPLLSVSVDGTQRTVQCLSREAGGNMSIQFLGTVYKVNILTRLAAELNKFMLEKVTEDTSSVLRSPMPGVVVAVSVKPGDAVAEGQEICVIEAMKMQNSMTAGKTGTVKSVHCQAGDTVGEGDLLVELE


What was measured:
[1] = target: T1, human propionyl-CoA carboxylase beta …
[2] = target: T2, human propionyl-CoA carboxylase alpha …; assay: immunofluorescence co-localisation with mitochondria in GM371 PCCA-deficient patient fibroblasts, 24 h after co-transfection of PCCA_18 and PCCB_18 mRNAs
Procedure: The subcellular co-localization of PCCA and PCCB proteins was examined in GM371 PCCA-deficient patient fibroblasts (9,000 cells/well on a 96-well plate) 24 hours after transfection with a total of 25 ng of 1-methyl-pseudouridine modified mRNAs encoding human PCCA (PCCA_18; SEQ ID NO: 35) and PCCB (PCCB_18; SEQ ID NO: 46), or a luciferase control. Commercial anti-PCCA monoclonal antibody (Santa Cruz #sc-393527) and anti-PCCB polyclonal antibody (Novus #NBP1-85886) were used to detect mRNA-expressed PCCA and PCCB using immunofluorescence microscopy. Mitotracker Red was used to confirm the identity of mitochondria and DAPI was used to stain nuclei. Image analysis was performed on a Zeiss ELYRA imaging system. […] There was no PAAC or PCCB staining in negative control cells that were transfected with mRNA encoding luciferase.

| binding result [2] | Binder | PCC activity in GM371 PCCA-deficient patient fibroblasts at different PCCA:PCCB mRNA molar ratios, 24 h and 40 h [1] | PCC activity in GM1298 PCCB-deficient patient fibroblasts at different PCCA:PCCB mRNA molar ratios, 24 h [1] | PCC enzyme activity (radiometric assay, MicroBeta readout/ug protein) in PCCA- and PCCB-deficient patient fibroblasts: co-transfection of PCCA and PCCB mRNAs at 1:1 against either mRNA alone [1] |
| --- | --- | --- | --- | --- |
| – | human propionyl-CoA carboxylase alpha (PCCA), wild-type isoform 1 (protein) SVGYDPNEKTFDKILVANRGEIACRVIRTCKKMGIKTVAIHSDVDASSVHVKMADEAVCVGPAPTSKSYLNMDAIMEAIKKTRAQAVHPGYGFLSENKEFARCLAAEDVVFIGPDTHAIQAMGDKIESKLLAKKAEVNTIPGFDGVVKDAEEAVRIAREIGYPVMIKASAGGGGKGMRIAWDDEETRDGFRLSSQEAASSFGDDRLLIEKFIDNPRHIEIQVLGDKHGNALWLNERECSIQRRNQKVVEEAPSIFLDAETRRAMGEQAVALARAVKYSSAGTVEFLVDSKKNFYFLEMNTRLQVEHPVTECITGLDLVQEMIRVAKGYPLRHKQADIRINGWAVECRVYAEDPYKSFGLPSIGRLSQYQEPLHLPGVRVDSGIQPGSDISIYYDPMISKLITYGSDRTEALKRMADALDNYVIRGVTHNIALLREVIINSRFVKGDISTKFLSDVYPDGFKGHMLTKSEKNQLLAIASSLFVAFQLRAQHFQENSRMPVIKPDIANWELSVKLHDKVHTVVASNNGSVFSVEVDGSKLNVTSTWNLASPLLSVSVDGTQRTVQCLSREAGGNMSIQFLGTVYKVNILTRLAAELNKFMLEKVTEDTSSVLRSPMPGVVVAVSVKPGDAVAEGQEICVIEAMKMQNSMTAGKTGTVKSVHCQAGDTVGEGDLLVELE | a PCCA:PCCB molar ratio of 1:1 (A:B ratio of 1:1) increased PCC activity the greatest in PCCA-deficient patient fibroblasts | a PCCA:PCCB molar ratio of 1:1 (A:B ratio of 1:1) increased PCC activity the greatest in PCCB-deficient patient fibroblasts | 5-25 fold higher |
| binds | human propionyl-CoA carboxylase beta (PCCB), wild-type isoform 1 (enzyme, Made inside transfected cells or mouse liver from mRNA encoding the full-length precursor; also called hPCCB; propionyl-CoA carboxylase beta subunit) CSQATSVNERIENKRRTALLGGGQRRIDAQHKRGKLTARERISLLLDPGSFVESDMFVEHRCADFGMAADKNKFPGDSVVTGRGRINGRLVYVFSQDFTVFGGSLSGAHAQKICKIMDQAITVGAPVIGLNDSGGARIQEGVESLAGYADIFLRNVTASGVIPQISLIMGPCAGGAVYSPALTDFTFMVKDTSYLFITGPDVVKSVTNEDVTQEELGGAKTHTTMSGVAHRAFENDVDALCNLRDFFNYLPLSSQDPAPVRECHDPSDRLVPELDTIVPLESTKAYNMVDIIHSVVDEREFFEIMPNYAKNIIVGFARMNGRTVGIVGNQPKVASGCLDINSSVKGARFVRFCDAFNIPLITFVDVPGFLPGTAQEYGGIIRHGAKLLYAFAEATVPKVTVITRKAYGGAYDVMSSKHLCGDTNYAWPTAEIAVMGAKGAVEIIFKGHENVEAAQAEYIEKFANPFPAAVRGFVDDIIQPSSTRARICCDLDVLASKKVQRPWRKHANIPL | – | – | – |

Source: US20220265856A1 (MODERNATX, published 2022)
